Results: article PMC5354831

Target: HER3 (human (endogenous in LIM1215)) (UniProt P21860)
Assay: Collaborative Enzyme Enhanced Reactive-immunoassay (CEER); proximity-mediated immunoassay in a multiplexed array format on LIM1215 cell lysates, done by Prometheus Laboratories; cells control-treated or treated 24h with cetuximab (50 ug/mL), lapatinib (1 uM), gefitinib, cetuximab + trastuzumab (20 ug/mL) or cetuximab + pertuzumab (10 ug/mL); read-out in computed units (CU)

Sequence of UniProt P21860 (P21860 20-1342): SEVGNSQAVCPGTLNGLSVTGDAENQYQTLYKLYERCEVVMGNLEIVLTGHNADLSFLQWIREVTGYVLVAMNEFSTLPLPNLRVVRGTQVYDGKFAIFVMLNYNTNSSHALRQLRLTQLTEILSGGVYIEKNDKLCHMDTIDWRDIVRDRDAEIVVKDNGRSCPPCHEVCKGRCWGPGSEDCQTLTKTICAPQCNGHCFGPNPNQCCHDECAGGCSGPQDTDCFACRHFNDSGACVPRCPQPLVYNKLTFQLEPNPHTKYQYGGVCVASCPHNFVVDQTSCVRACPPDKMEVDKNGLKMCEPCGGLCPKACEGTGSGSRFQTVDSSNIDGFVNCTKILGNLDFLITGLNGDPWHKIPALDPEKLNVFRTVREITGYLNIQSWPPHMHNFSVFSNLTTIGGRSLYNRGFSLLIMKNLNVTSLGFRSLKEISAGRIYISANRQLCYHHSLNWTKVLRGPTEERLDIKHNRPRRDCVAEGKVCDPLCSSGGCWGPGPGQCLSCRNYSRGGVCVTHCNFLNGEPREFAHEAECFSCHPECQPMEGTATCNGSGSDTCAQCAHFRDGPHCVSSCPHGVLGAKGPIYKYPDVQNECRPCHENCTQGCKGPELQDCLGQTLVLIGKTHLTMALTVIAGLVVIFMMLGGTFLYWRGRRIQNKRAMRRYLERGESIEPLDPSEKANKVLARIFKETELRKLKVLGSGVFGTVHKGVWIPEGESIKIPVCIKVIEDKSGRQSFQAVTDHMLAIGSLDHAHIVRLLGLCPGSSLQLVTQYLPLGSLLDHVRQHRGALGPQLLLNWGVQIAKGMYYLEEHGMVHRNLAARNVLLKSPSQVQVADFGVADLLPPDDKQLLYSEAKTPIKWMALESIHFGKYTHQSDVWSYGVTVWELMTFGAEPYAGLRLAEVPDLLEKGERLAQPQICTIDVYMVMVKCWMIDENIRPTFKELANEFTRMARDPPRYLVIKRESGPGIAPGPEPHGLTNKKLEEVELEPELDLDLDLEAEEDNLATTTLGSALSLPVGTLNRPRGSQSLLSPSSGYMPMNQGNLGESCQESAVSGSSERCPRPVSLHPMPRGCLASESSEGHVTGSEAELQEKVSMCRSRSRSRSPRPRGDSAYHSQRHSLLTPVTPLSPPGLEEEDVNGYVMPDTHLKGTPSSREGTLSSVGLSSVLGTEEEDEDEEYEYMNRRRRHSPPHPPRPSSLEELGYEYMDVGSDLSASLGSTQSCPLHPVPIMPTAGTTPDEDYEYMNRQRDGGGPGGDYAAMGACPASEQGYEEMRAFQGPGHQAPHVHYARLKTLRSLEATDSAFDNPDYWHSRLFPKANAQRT
Sequence of PI3K p85 (P27986 whole entry): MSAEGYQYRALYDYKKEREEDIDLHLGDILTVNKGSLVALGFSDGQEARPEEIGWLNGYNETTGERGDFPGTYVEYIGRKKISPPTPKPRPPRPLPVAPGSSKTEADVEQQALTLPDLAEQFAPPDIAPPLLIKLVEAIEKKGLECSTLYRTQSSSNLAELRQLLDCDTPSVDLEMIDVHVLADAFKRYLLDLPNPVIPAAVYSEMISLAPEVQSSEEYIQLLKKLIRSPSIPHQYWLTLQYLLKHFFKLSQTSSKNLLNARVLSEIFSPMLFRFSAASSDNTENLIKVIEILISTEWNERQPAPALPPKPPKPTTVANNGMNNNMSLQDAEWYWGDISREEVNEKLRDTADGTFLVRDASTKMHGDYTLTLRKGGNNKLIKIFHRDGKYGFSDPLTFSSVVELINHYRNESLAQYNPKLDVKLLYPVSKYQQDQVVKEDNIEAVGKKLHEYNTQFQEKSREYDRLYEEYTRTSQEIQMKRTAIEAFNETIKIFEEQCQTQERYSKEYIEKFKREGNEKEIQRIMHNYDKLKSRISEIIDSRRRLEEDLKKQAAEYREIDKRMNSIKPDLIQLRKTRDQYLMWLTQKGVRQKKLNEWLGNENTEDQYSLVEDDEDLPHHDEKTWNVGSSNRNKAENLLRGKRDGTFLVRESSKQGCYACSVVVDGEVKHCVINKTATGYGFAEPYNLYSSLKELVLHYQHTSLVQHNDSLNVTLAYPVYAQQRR

PI3K p85 (from UniProt P27986 1-724) (natural protein)
fold increase in HER3:PI3K p85 binding, 24h cetuximab against control treatment: 5 fold
